Experimental data as given in patent US20190177417A1 (BIOATLA, published 2019).

B1: HC-H100W (antibody, V domains shown)
VH: EVQLVQSGAEVKKPGATVKISCKVSGYSFTGHTMNWIRQPPGKGLEWIGLIKPSNGGTSYNQKFKGRVTISADKSISTAYLQWSSLKASDTAMYYCAHGWYESYFAMDYWGQGTLVTVSS
VL: DIQMTQSPSSLSASVGDRVTITCKASQDVSSAVAWYQQKPGQAPRLLIYWASTRHTGVPSRFSGSGSGTEFTLTISSLQPDDFATYYCQEHFSTPLTFGQGTKVEIK
B2: HC-F105N (antibody, V domains shown)
VH: EVQLVQSGAEVKKPGATVKISCKVSGYSFTGHTMNWIRQPPGKGLEWIGLIKPSNGGTSYNQKFKGRVTISADKSISTAYLQWSSLKASDTAMYYCAHGHYESYNAMDYWGQGTLVTVSS
VL: DIQMTQSPSSLSASVGDRVTITCKASQDVSSAVAWYQQKPGQAPRLLIYWASTRHTGVPSRFSGSGSGTEFTLTISSLQPDDFATYYCQEHFSTPLTFGQGTKVEIK
B3: HC-Y101N (antibody, V domains shown)
VH: EVQLVQSGAEVKKPGATVKISCKVSGYSFTGHTMNWIRQPPGKGLEWIGLIKPSNGGTSYNQKFKGRVTISADKSISTAYLQWSSLKASDTAMYYCAHGHNESYFAMDYWGQGTLVTVSS
VL: DIQMTQSPSSLSASVGDRVTITCKASQDVSSAVAWYQQKPGQAPRLLIYWASTRHTGVPSRFSGSGSGTEFTLTISSLQPDDFATYYCQEHFSTPLTFGQGTKVEIK
B4: HC-F105T (antibody, V domains shown)
VH: EVQLVQSGAEVKKPGATVKISCKVSGYSFTGHTMNWIRQPPGKGLEWIGLIKPSNGGTSYNQKFKGRVTISADKSISTAYLQWSSLKASDTAMYYCAHGHYESYTAMDYWGQGTLVTVSS
VL: DIQMTQSPSSLSASVGDRVTITCKASQDVSSAVAWYQQKPGQAPRLLIYWASTRHTGVPSRFSGSGSGTEFTLTISSLQPDDFATYYCQEHFSTPLTFGQGTKVEIK
B5: HC-F105V (antibody, V domains shown)
VH: EVQLVQSGAEVKKPGATVKISCKVSGYSFTGHTMNWIRQPPGKGLEWIGLIKPSNGGTSYNQKFKGRVTISADKSISTAYLQWSSLKASDTAMYYCAHGHYESYVAMDYWGQGTLVTVSS
VL: DIQMTQSPSSLSASVGDRVTITCKASQDVSSAVAWYQQKPGQAPRLLIYWASTRHTGVPSRFSGSGSGTEFTLTISSLQPDDFATYYCQEHFSTPLTFGQGTKVEIK
B6: HC-Y104C (antibody, V domains shown)
VH: EVQLVQSGAEVKKPGATVKISCKVSGYSFTGHTMNWIRQPPGKGLEWIGLIKPSNGGTSYNQKFKGRVTISADKSISTAYLQWSSLKASDTAMYYCAHGHYESCFAMDYWGQGTLVTVSS
VL: DIQMTQSPSSLSASVGDRVTITCKASQDVSSAVAWYQQKPGQAPRLLIYWASTRHTGVPSRFSGSGSGTEFTLTISSLQPDDFATYYCQEHFSTPLTFGQGTKVEIK
B7: HC-E102F (antibody, V domains shown)
VH: EVQLVQSGAEVKKPGATVKISCKVSGYSFTGHTMNWIRQPPGKGLEWIGLIKPSNGGTSYNQKFKGRVTISADKSISTAYLQWSSLKASDTAMYYCAHGHYFSYFAMDYWGQGTLVTVSS
VL: DIQMTQSPSSLSASVGDRVTITCKASQDVSSAVAWYQQKPGQAPRLLIYWASTRHTGVPSRFSGSGSGTEFTLTISSLQPDDFATYYCQEHFSTPLTFGQGTKVEIK
B8: HC-H100P (antibody, V domains shown)
VH: EVQLVQSGAEVKKPGATVKISCKVSGYSFTGHTMNWIRQPPGKGLEWIGLIKPSNGGTSYNQKFKGRVTISADKSISTAYLQWSSLKASDTAMYYCAHGPYESYFAMDYWGQGTLVTVSS
VL: DIQMTQSPSSLSASVGDRVTITCKASQDVSSAVAWYQQKPGQAPRLLIYWASTRHTGVPSRFSGSGSGTEFTLTISSLQPDDFATYYCQEHFSTPLTFGQGTKVEIK
B9: HC-E102I (antibody, V domains shown)
VH: EVQLVQSGAEVKKPGATVKISCKVSGYSFTGHTMNWIRQPPGKGLEWIGLIKPSNGGTSYNQKFKGRVTISADKSISTAYLQWSSLKASDTAMYYCAHGHYISYFAMDYWGQGTLVTVSS
VL: DIQMTQSPSSLSASVGDRVTITCKASQDVSSAVAWYQQKPGQAPRLLIYWASTRHTGVPSRFSGSGSGTEFTLTISSLQPDDFATYYCQEHFSTPLTFGQGTKVEIK
B10: HC-Y104E (antibody, V domains shown)
VH: EVQLVQSGAEVKKPGATVKISCKVSGYSFTGHTMNWIRQPPGKGLEWIGLIKPSNGGTSYNQKFKGRVTISADKSISTAYLQWSSLKASDTAMYYCAHGHYESEFAMDYWGQGTLVTVSS
VL: DIQMTQSPSSLSASVGDRVTITCKASQDVSSAVAWYQQKPGQAPRLLIYWASTRHTGVPSRFSGSGSGTEFTLTISSLQPDDFATYYCQEHFSTPLTFGQGTKVEIK
B11: HC-T033I (antibody, V domains shown)
VH: EVQLVQSGAEVKKPGATVKISCKVSGYSFTGHIMNWIRQPPGKGLEWIGLIKPSNGGTSYNQKFKGRVTISADKSISTAYLQWSSLKASDTAMYYCAHGHYESYFAMDYWGQGTLVTVSS
VL: DIQMTQSPSSLSASVGDRVTITCKASQDVSSAVAWYQQKPGQAPRLLIYWASTRHTGVPSRFSGSGSGTEFTLTISSLQPDDFATYYCQEHFSTPLTFGQGTKVEIK
B12: HC-E102D (antibody, V domains shown)
VH: EVQLVQSGAEVKKPGATVKISCKVSGYSFTGHTMNWIRQPPGKGLEWIGLIKPSNGGTSYNQKFKGRVTISADKSISTAYLQWSSLKASDTAMYYCAHGHYDSYFAMDYWGQGTLVTVSS
VL: DIQMTQSPSSLSASVGDRVTITCKASQDVSSAVAWYQQKPGQAPRLLIYWASTRHTGVPSRFSGSGSGTEFTLTISSLQPDDFATYYCQEHFSTPLTFGQGTKVEIK
B13: HC-E102G (antibody, V domains shown)
VH: EVQLVQSGAEVKKPGATVKISCKVSGYSFTGHTMNWIRQPPGKGLEWIGLIKPSNGGTSYNQKFKGRVTISADKSISTAYLQWSSLKASDTAMYYCAHGHYGSYFAMDYWGQGTLVTVSS
VL: DIQMTQSPSSLSASVGDRVTITCKASQDVSSAVAWYQQKPGQAPRLLIYWASTRHTGVPSRFSGSGSGTEFTLTISSLQPDDFATYYCQEHFSTPLTFGQGTKVEIK
B14: HC-E102A (antibody, V domains shown)
VH: EVQLVQSGAEVKKPGATVKISCKVSGYSFTGHTMNWIRQPPGKGLEWIGLIKPSNGGTSYNQKFKGRVTISADKSISTAYLQWSSLKASDTAMYYCAHGHYASYFAMDYWGQGTLVTVSS
VL: DIQMTQSPSSLSASVGDRVTITCKASQDVSSAVAWYQQKPGQAPRLLIYWASTRHTGVPSRFSGSGSGTEFTLTISSLQPDDFATYYCQEHFSTPLTFGQGTKVEIK
B15: HC-S103Q (antibody, V domains shown)
VH: EVQLVQSGAEVKKPGATVKISCKVSGYSFTGHTMNWIRQPPGKGLEWIGLIKPSNGGTSYNQKFKGRVTISADKSISTAYLQWSSLKASDTAMYYCAHGHYEQYFAMDYWGQGTLVTVSS
VL: DIQMTQSPSSLSASVGDRVTITCKASQDVSSAVAWYQQKPGQAPRLLIYWASTRHTGVPSRFSGSGSGTEFTLTISSLQPDDFATYYCQEHFSTPLTFGQGTKVEIK
B16: HC-F105S (antibody, V domains shown)
VH: EVQLVQSGAEVKKPGATVKISCKVSGYSFTGHTMNWIRQPPGKGLEWIGLIKPSNGGTSYNQKFKGRVTISADKSISTAYLQWSSLKASDTAMYYCAHGHYESYSAMDYWGQGTLVTVSS
VL: DIQMTQSPSSLSASVGDRVTITCKASQDVSSAVAWYQQKPGQAPRLLIYWASTRHTGVPSRFSGSGSGTEFTLTISSLQPDDFATYYCQEHFSTPLTFGQGTKVEIK
B17: HC-Y104P (antibody, V domains shown)
VH: EVQLVQSGAEVKKPGATVKISCKVSGYSFTGHTMNWIRQPPGKGLEWIGLIKPSNGGTSYNQKFKGRVTISADKSISTAYLQWSSLKASDTAMYYCAHGHYESPFAMDYWGQGTLVTVSS
VL: DIQMTQSPSSLSASVGDRVTITCKASQDVSSAVAWYQQKPGQAPRLLIYWASTRHTGVPSRFSGSGSGTEFTLTISSLQPDDFATYYCQEHFSTPLTFGQGTKVEIK

Key:
Axl protein [1] = biological target: T1, Axl protein (human, UniProt P30530 26-451); test: ELISA, 1:9 dilution, pH 6.0 over pH 7.4
T1 construct: extracellular domain; also called human Axl; hAxl
T1 sequence (looked up): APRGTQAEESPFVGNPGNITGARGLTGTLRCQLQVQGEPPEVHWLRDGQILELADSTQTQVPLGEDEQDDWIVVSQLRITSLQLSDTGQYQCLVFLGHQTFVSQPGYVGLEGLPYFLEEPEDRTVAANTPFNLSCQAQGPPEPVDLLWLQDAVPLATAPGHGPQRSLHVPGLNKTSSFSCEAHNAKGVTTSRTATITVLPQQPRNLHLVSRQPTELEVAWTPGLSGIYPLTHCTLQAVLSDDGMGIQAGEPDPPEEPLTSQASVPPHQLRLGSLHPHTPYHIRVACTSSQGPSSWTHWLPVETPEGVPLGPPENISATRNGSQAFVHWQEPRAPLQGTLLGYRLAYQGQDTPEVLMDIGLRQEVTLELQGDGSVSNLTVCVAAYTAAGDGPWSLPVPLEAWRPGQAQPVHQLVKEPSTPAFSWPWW

Axl protein [2] = biological target: T1, Axl protein; test: ELISA, 1:3 dilution, pH 6.0 over pH 7.4

Binder | Affinity ELISA CPE mutant ratio (1:9, pH 6.0/7.4) (Axl protein [1]) [ratio] | Affinity ELISA CPE mutant ratio (1:3, pH 6.0/7.4) (Axl protein [2]) [ratio]
B1 | 5.91 | 4.94
B2 | 2.64 | 2.36
B3 | 2.91 | 2.17
B4 | 4.02 | 3.46
B5 | 2.8 | 2.43
B6 | 1.74 | 1.84
B7 | 1.36 | 1.88
B8 | 1.18 | 2.58
B9 | 1.7 | 2.02
B10 | 1.8 | 1.32
B11 | 1 | 1.59
B12 | 2.85 | 2.67
B13 | 2.68 | 1.8
B14 | 1.69 | 1.54
B15 | 2.26 | 0.912
B16 | 4.54 | 3.9
B17 | 2.42 | 2.54
